Results published in PMC8410842, “Heimdallarchaea encodes profilin with eukaryotic-like actin regulation and polyproline binding” (Communications Biology, 2021).
Where two headings read alike, the source gives them in different places.

Assays:
[1] = molecular target: T1, ΔN-heimProfilin (Candidatus Heimdallarchaeota archaeon LC_3, UniProt A0A1Q9NL85); assay: NMR 1H-15N TROSY-HSQC titration; format: binding; details: 25 mM Tris-HCl pH 7.5, 50 mM NaCl, 5% glycerol, 298 K; acyl chains not given
T1 construct: gene HeimC3_27980; residues 1-23 (N-terminal extension) deleted; E. coli Rosetta DE3; His6-SUMO tag cleaved with Ulp1; 15N labelled; PDB 6YRR is the full-length parent

[2] = molecular target: Heimdallarchaeota LC3 profilin (heimProfilin) (Candidatus Heimdallarchaeota archaeon LC_3); assay: ITC; profilin in the cell (approx. 0.1-0.5 mM), 20 injections of 1.0-14 mM polyproline (VASP); 50 mM Na3PO4 pH 7.5, 50 mM NaCl; 25 °C; triplicates
[3] = molecular target: ΔN-heimProfilin (Candidatus Heimdallarchaeota archaeon LC_3); assay: as above
[4] = molecular target: both the full-length protein and ΔN-thorProfilin; assay: NMR titration; 1H-15N TROSY-HSQC; fixed thorProfilin or ΔN-thorProfilin (200 μM), increasing polyproline … (0, 5, 7 mM in the legend); 25 mM Tris-HCl pH 6.8, 150 mM NaCl; KD from fits of chemical shifts of a few residues
[5] = molecular target: both the full-length protein and ΔN-thorProfilin; assay: as above; remark: listed apart in the source

In the case of PIP2, the affinity [1] is reported as ~ 0.5–1 ± 0.3 mM.

GAGGGPPPAPPLPAAQ [polyproline motif of VASP (…)] showed a Kd [2] of 3300 µM and a Kd [3] of 300 µM.

PPPAPPLPAAQ [polyproline from VASP (…)] gave a Kd [4] of 250 to 500 µM and a Kd [5] of 200 to 500 µM.
